In the array DNA melting data of Ke et al. one finds Tm data, which are given here for 39 substances.

Data set [1] can be described thus: melting temperature; UV melt of duplexes.
A short description of data set [2]: melting temperature; melt of duplexes. The note with it: sodium 0.0675 M; strand 1 µM.

“GCTAAAAAGAGAGAGAGATCG+CGATCTCTCTCTCTTTTTAGC (((((((((((((((((((((+)))))))))))))))))))))”: in data set [1] (sodium 1 M, strand 3 µM), the Tm amounted to 69 °C.
For “CTCAACTTGCGGTAAATAAATCGCTTAATC+GATTAAGCGATTTATTTACCGCAAGTTGAG ((((((((((((((((((((((((((((((+))))))))))))))))))))))))))))))”, the Tm is 60.9 °C in data set [1] (sodium 0.07 M, strand 2 µM); 64.8 °C in data set [1] (sodium 0.12 M, strand 2 µM); 68.7 °C in data set [1] (sodium 0.22 M, strand 2 µM); 74.4 °C in data set [1] (sodium 0.62 M, strand 2 µM); 75.5 °C in data set [1] (sodium 1.02 M, strand 2 µM).
As for “CGACGTGCAACATGTGCTG+CAGCACATCCAGCACGTCG ((((((((...((((((((+))))))))...))))))))”, the Tm in data set [2] came out at 47.1 °C.
“CGACGTGCGGTATGTGCTG+CAGCACATACGGCACGTCG ((((((((.((((((((((+)))))))))).))))))))”: in data set [2], the Tm is 58.5 °C.
Turning to “CGACGTGCATGATGTGCTG+CAGCACATCATGCACGTCG (((((((((((((((((((+)))))))))))))))))))”, in data set [2], the Tm came out at 63.6 °C.
The same measure, in the same setting: under “CGACGTGCCCCATGTGCTG+CAGCACATTGGGCACGTCG ((((((((((.((((((((+)))))))).))))))))))” stands 58.5 °C.
With “CGACGTGCTGCATGTGCTG+CAGCACATCCGGCACGTCG ((((((((.(.((((((((+)))))))).).))))))))”, the Tm in data set [2] was found to be 51.9 °C.
Same read-out and setting: for “CGACGTGCGGTATGTGCTG+CAGCACATAAGGCACGTCG ((((((((..(((((((((+)))))))))..))))))))” the value was 53 °C.
As for “CGACGTGCCCAATGTGCTG+CAGCACATGTCGCACGTCG ((((((((...((((((((+))))))))...))))))))”, the Tm in data set [2] was determined as 49.5 °C.
For the substance “CGACGTGCCATATGTGCTG+CAGCACATCTGGCACGTCG ((((((((((.((((((((+)))))))).))))))))))”, the Tm in data set [2] is 57.1 °C.
Regarding “CGACGTGCATCATGTGCTG+CAGCACATATGGCACGTCG ((((((((...((((((((+))))))))...))))))))”, in data set [2], the Tm came out at 48.8 °C.
For “CGACGTGCTATATGTGCTG+CAGCACATACCGCACGTCG ((((((((..(((((((((+)))))))))..))))))))”, the Tm in data set [2] amounted to 49.3 °C.
Take “CGACGTGCCAAATGTGCTG+CAGCACATGTTGCACGTCG ((((((((.(.((((((((+)))))))).).))))))))”: the Tm in data set [2] was found to be 50.5 °C.
Consider “CGACGTGCGCAATGTGCTG+CAGCACATGACGCACGTCG (((((((((..((((((((+))))))))..)))))))))”, for which the Tm in data set [2] amounted to 54.4 °C.
Still for that read-out and setting: for “CGACGTGCGTAATGTGCTG+CAGCACATCACGCACGTCG ((((((((((.((((((((+)))))))).))))))))))” the value was 58 °C.
On the same count and under the same terms, for “CGACGTGCACAATGTGCTG+CAGCACATCACGCACGTCG ((((((((...((((((((+))))))))...))))))))” the value was 45.3 °C; for “CGACGTGCTCCATGTGCTG+CAGCACATTAGGCACGTCG ((((((((...((((((((+))))))))...))))))))”, 48.4 °C; for “CGACGTGCTTTATGTGCTG+CAGCACATCATGCACGTCG ((((((((.(.((((((((+)))))))).).))))))))”, 49.2 °C.
For the substance “CGACGTGCGTGATGTGCTG+CAGCACATCCGGCACGTCG ((((((((..(((((((((+)))))))))..))))))))”, the Tm in data set [2] worked out at 55.7 °C.
Regarding “CGACGTGCGACATGTGCTG+CAGCACATGTTGCACGTCG ((((((((.((((((((((+)))))))))).))))))))”, the Tm in data set [2] is 60.9 °C.
Same read-out and setting: under “CGACGTGCACTATGTGCTG+CAGCACATTACGCACGTCG ((((((((...((((((((+))))))))...))))))))” stands 43.6 °C; under “CGACGTGCAGGATGTGCTG+CAGCACATTGAGCACGTCG ((((((((...((((((((+))))))))...))))))))”, 50.6 °C.
Consider “CGACGTGCGAGATGTGCTG+CAGCACATTACGCACGTCG (((((((((..((((((((+))))))))..)))))))))”, for which the melting temperature (Tm) in data set [2] came to 55.4 °C.
Regarding “CGACGTGCGCTATGTGCTG+CAGCACATATAGCACGTCG ((((((((..(((((((((+)))))))))..))))))))”, in data set [2], the Tm stood at 53.8 °C.
Still for that read-out and setting: for “CGACGTGCGGGATGTGCTG+CAGCACATATGGCACGTCG ((((((((...((((((((+))))))))...))))))))” the value was 50.8 °C.
Take “CGACGTGCTGAATGTGCTG+CAGCACATGATGCACGTCG ((((((((...((((((((+))))))))...))))))))”: in data set [2], the Tm worked out at 55.2 °C.
On to “CGACGTGCTGTATGTGCTG+CAGCACATAGCGCACGTCG ((((((((..(((((((((+)))))))))..))))))))”, for which the Tm in data set [2] stood at 49.9 °C.
For the substance “CGACGTGCGTCATGTGCTG+CAGCACATGCCGCACGTCG (((((((((.(((((((((+))))))))).)))))))))”, the Tm in data set [2] amounted to 59.9 °C.
For “CGACGTGCACAATGTGCTG+CAGCACATGGAGCACGTCG ((((((((.(.((((((((+)))))))).).))))))))”, the Tm in data set [2] is 52.5 °C.
Turning to “CGACGTGCCACATGTGCTG+CAGCACATCTCGCACGTCG ((((((((.(.((((((((+)))))))).).))))))))”, in data set [2], the Tm came to 46.8 °C.
On the same count and under the same terms, under “CGACGTGCTATATGTGCTG+CAGCACATGTTGCACGTCG ((((((((.(.((((((((+)))))))).).))))))))” stands 52.6 °C; under “CGACGTGCGTAATGTGCTG+CAGCACATGACGCACGTCG ((((((((((.((((((((+)))))))).))))))))))”, 58 °C; under “CGACGTGCATGATGTGCTG+CAGCACATGCAGCACGTCG ((((((((...((((((((+))))))))...))))))))”, 50.4 °C.
As to “CGACGTGCCACATGTGCTG+CAGCACATTAAGCACGTCG ((((((((...((((((((+))))))))...))))))))”, in data set [2], the Tm was found to be 48.6 °C.
The same measure, in the same setting: under “CGACGTGCTTGATGTGCTG+CAGCACATTAAGCACGTCG ((((((((((.((((((((+)))))))).))))))))))” stands 57.2 °C; under “CGACGTGCAGAATGTGCTG+CAGCACATCCGGCACGTCG ((((((((.(.((((((((+)))))))).).))))))))”, 52.7 °C; under “CGACGTGCTGGATGTGCTG+CAGCACATTACGCACGTCG ((((((((...((((((((+))))))))...))))))))”, 51.1 °C.
On the same count and under the same terms, for “CGACGTGCGTGATGTGCTG+CAGCACATATGGCACGTCG ((((((((...((((((((+))))))))...))))))))” the value was 50 °C; for “CGACGTGCTGAATGTGCTG+CAGCACATTGGGCACGTCG ((((((((..(((((((((+)))))))))..))))))))”, 53.8 °C.
